Experimental data: patent US20260209384A1 (Stanford University, published 2026)

T1: recombinant human GPC2 (R&D Systems) (human, UniProt Q8N158 24-554, limits assumed, labelled with Dylight488 or Dylight650 in the flow cytometry assays; unlabelled in the ELISA)
T1 construct: extracellular domain; also called hGPC2; human Glypican-2
T1 sequence (looked up): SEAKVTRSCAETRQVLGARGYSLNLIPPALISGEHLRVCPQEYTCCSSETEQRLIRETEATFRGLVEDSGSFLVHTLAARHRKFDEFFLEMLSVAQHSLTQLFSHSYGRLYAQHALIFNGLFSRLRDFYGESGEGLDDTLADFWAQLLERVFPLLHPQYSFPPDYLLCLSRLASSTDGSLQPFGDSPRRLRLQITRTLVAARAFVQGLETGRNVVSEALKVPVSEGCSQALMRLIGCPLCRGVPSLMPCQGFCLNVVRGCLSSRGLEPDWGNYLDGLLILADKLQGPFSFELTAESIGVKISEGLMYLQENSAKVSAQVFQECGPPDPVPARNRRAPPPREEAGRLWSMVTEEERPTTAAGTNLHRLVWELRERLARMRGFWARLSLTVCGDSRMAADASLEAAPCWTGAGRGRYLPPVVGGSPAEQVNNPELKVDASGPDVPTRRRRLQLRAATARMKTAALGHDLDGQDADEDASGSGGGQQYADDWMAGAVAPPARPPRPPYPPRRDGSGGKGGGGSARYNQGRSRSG

T2: recombinant murine GPC2 (R&D Systems) (mouse, UniProt Q8BKV1 22-556, limits assumed, labelled with Dylight488 in the flow cytometry assay of FIG. 9B; unlabelled in the ELISA)
T2 construct: Bought recombinant protein; also called mGPC2; mouse GPC2
T2 sequence (looked up): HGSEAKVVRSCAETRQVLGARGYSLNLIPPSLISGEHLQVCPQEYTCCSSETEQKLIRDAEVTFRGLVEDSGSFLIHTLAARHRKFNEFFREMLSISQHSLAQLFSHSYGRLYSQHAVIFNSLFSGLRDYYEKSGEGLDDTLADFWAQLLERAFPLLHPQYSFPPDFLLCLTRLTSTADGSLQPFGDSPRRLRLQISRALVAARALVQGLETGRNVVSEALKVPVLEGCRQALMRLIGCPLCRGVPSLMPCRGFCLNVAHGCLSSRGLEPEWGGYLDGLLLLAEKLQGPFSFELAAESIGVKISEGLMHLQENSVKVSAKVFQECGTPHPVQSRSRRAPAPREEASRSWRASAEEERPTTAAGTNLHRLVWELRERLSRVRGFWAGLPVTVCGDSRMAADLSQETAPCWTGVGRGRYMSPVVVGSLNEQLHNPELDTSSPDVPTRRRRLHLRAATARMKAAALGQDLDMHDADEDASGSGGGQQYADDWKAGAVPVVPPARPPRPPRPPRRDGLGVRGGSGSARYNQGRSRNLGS

B1: GPC2.19-IgG1 (antibody, V domains shown)
VH: QLQLQESGPGLVKPSETLSLTCTVSGGSISSSSYYWSWIRQPPGKGLEWIGSIYYSGSTYYNPSLKSRVTISVDTSKNQFSLKLSSVTAADTAVYYCARRVSGHPFDPWGQGTLVTVSS
VL: DIQMTQSPSSLSASIGDRVTITCQASQDISDYLNWYQQKPGKAPKLLIYDASNLETGVPSRFSGSGSGTDFTFTISSLQPEDVATYYCQQYDNLPITFGQGTKLEIKR
notes: also called GPC2.IgG1; fully human GPC2.19-IgG1 antibody
B2: GPC2.19 CAR in VH-L-VL orientation with CD8a hinge-transmembrane domain and 41BBz signaling domain (other)
chain: QLQLQESGPGLVKPSETLSLTCTVSGGSISSSSYYWSWIRQPPGKGLEWIGSIYYSGSTYYNPSLKSRVTISVDTSKNQFSLKLSSVTAADTAVYYCARRVSGHPFDPWGQGTLVTVSSGGGGSGGGASGGGGSDIQMTQSPSSLSASIGDRVTITCQASQDISDYLNWYQQKPGKAPKLLIYDASNLETGVPSRFSGSGSGTDFTFTISSLQPEDVATYYCQQYDNLPITFGQGTKLEIKRATTTPAPRPPTPAPTIASQPLSLRPEACRPAAGGAVHTRGLDFACDIYIWAPLAGTCGVLLLSLVITLYCKRGRKKLLYIFKQPFMRPVQTTQEEDGCSCRFPEEEEGGCELRVKFSRSADAPAYKQGQNQLYNELNLGRREEYDVLDKRRGRDPEMGGKPRRKNPQEGLYNELQKDKMAEAYSEIGMKGERRRGKGHDGLYQGLSTATKDTYDALHMQALPPR
notes: also called GPC2.19 VH-L-VL CAR
B3: GPC2.27 CAR in VL-L-VH orientation with CD8a hinge-transmembrane domain and 41BBz signaling domain (other)
chain: EIVMTQSPATLSASVGDRVTIACRASQTISRYLNWYQQKPGKAPKLLIYAASSLQSGVSSRFSGSGSGTEFTLTISSLQPEDFATYFCQQTYSPPITFGQGTRLEIKRGGGGSGGGASGGGGSEVQLVESGPGLVKPSETLSLTCAVSGYSISSGYYWGWIRQPPGKGLEWIGSIYHSGSTYYNPSLKSRVTISVDTSKNQFSLKLSSVTAADTAVYYCASLPSRGGFDYWGQGTLVTVSSATTTPAPRPPTPAPTIASQPLSLRPEACRPAAGGAVHTRGLDFACDIYIWAPLAGTCGVLLLSLVITLYCKRGRKKLLYIFKQPFMRPVQTTQEEDGCSCRFPEEEEGGCELRVKFSRSADAPAYKQGQNQLYNELNLGRREEYDVLDKRRGRDPEMGGKPRRKNPQEGLYNELQKDKMAEAYSEIGMKGERRRGKGHDGLYQGLSTATKDTYDALHMQALPPR
notes: also called GPC2.27 VL-L-VH CAR
B4: GPC2.27 CAR in VH-L-VL orientation with CD8a hinge-transmembrane domain and 41BBz signaling domain (other)
chain: EVQLVESGPGLVKPSETLSLTCAVSGYSISSGYYWGWIRQPPGKGLEWIGSIYHSGSTYYNPSLKSRVTISVDTSKNQFSLKLSSVTAADTAVYYCASLPSRGGFDYWGQGTLVTVSSGGGGSGGGASGGGGSEIVMTQSPATLSASVGDRVTIACRASQTISRYLNWYQQKPGKAPKLLIYAASSLQSGVSSRFSGSGSGTEFTLTISSLQPEDFATYFCQQTYSPPITFGQGTRLEIKRATTTPAPRPPTPAPTIASQPLSLRPEACRPAAGGAVHTRGLDFACDIYIWAPLAGTCGVLLLSLVITLYCKRGRKKLLYIFKQPFMRPVQTTQEEDGCSCRFPEEEEGGCELRVKFSRSADAPAYKQGQNQLYNELNLGRREEYDVLDKRRGRDPEMGGKPRRKNPQEGLYNELQKDKMAEAYSEIGMKGERRRGKGHDGLYQGLSTATKDTYDALHMQALPPR
notes: also called GPC2.27 VH-L-VL CAR
B5: GPC2.19VLVH.8aH-8aTM.41BBz (other)
chain: DIQMTQSPSSLSASIGDRVTITCQASQDISDYLNWYQQKPGKAPKLLIYDASNLETGVPSRFSGSGSGTDFTFTISSLQPEDVATYYCQQYDNLPITFGQGTKLEIKRGGGGSGGGASGGGGSQLQLQESGPGLVKPSETLSLTCTVSGGSISSSSYYWSWIRQPPGKGLEWIGSIYYSGSTYYNPSLKSRVTISVDTSKNQFSLKLSSVTAADTAVYYCARRVSGHPFDPWGQGTLVTVSSATTTPAPRPPTPAPTIASQPLSLRPEACRPAAGGAVHTRGLDFACDIYIWAPLAGTCGVLLLSLVITLYCKRGRKKLLYIFKQPFMRPVQTTQEEDGCSCRFPEEEEGGCELRVKFSRSADAPAYKQGQNQLYNELNLGRREEYDVLDKRRGRDPEMGGKPRRKNPQEGLYNELQKDKMAEAYSEIGMKGERRRGKGHDGLYQGLSTATKDTYDALHMQALPPR
notes: also called GPC2.19 CAR; GPC2.8aTM.41BBz CAR
B6: GPC2.19VLVH.28H-28TM.41BBz (other)
chain: DIQMTQSPSSLSASIGDRVTITCQASQDISDYLNWYQQKPGKAPKLLIYDASNLETGVPSRFSGSGSGTDFTFTISSLQPEDVATYYCQQYDNLPITFGQGTKLEIKRGGGGSGGGASGGGGSQLQLQESGPGLVKPSETLSLTCTVSGGSISSSSYYWSWIRQPPGKGLEWIGSIYYSGSTYYNPSLKSRVTISVDTSKNQFSLKLSSVTAADTAVYYCARRVSGHPFDPWGQGTLVTVSSAAAIEVMYPPPYLDNEKSNGTIIHVKGKHLCPSPLFPGPSKPFWVLVVVGGVLACYSLLVTVAFIIFWVKRGRKKLLYIFKQPFMRPVQTTQEEDGCSCRFPEEEEGGCELRVKFSRSADAPAYKQGQNQLYNELNLGRREEYDVLDKRRGRDPEMGGKPRRKNPQEGLYNELQKDKMAEAYSEIGMKGERRRGKGHDGLYQGLSTATKDTYDALHMQALPPR
notes: also called GPC2.19 CAR with CD28 hinge-transmembrane domains and 41BB costimulatory domain
B7: GPC2.19VLVH.28H-28TM.28z (other)
chain: DIQMTQSPSSLSASIGDRVTITCQASQDISDYLNWYQQKPGKAPKLLIYDASNLETGVPSRFSGSGSGTDFTFTISSLQPEDVATYYCQQYDNLPITFGQGTKLEIKRGGGGSGGGASGGGGSQLQLQESGPGLVKPSETLSLTCTVSGGSISSSSYYWSWIRQPPGKGLEWIGSIYYSGSTYYNPSLKSRVTISVDTSKNQFSLKLSSVTAADTAVYYCARRVSGHPFDPWGQGTLVTVSSAAAIEVMYPPPYLDNEKSNGTIIHVKGKHLCPSPLFPGPSKPFWVLVVVGGVLACYSLLVTVAFIIFWVRSKRSRLLHSDYMNMTPRRPGPTRKHYQPYAPPRDFAAYRSRVKFSRSADAPAYQQGQNQLYNELNLGRREEYDVLDKRRGRDPEMGGKPRRKNPQEGLYNELQKDKMAEAYSEIGMKGERRRGKGHDGLYQGLSTATKDTYDALHMQALPPR
notes: also called GPC2.28TM.28z CAR; GPC2.19 CAR with CD28 hinge-transmembrane domains and CD28 costimulatory domain

Experiments:
[1] = target: T1, recombinant human GPC2 (R&D Systems); test: ELISA, antigen coated on plate, anti-human Fc-HRP detection
Procedure: (§1) Fully human GPC2.19-IgG1 antibody was transiently expressed in 293 FreeStyle cells. Antibody was isolated from culture supernatant using protein A beads (Fisher). Isolated antibody was washed using PBS and Amicon […] filter columns. Binding of GPC2.19-IgG1 to GPC2 antigen was measured via ELISA. Recombinant human and mouse GPC2 antigens were purchased from R&D Systems, dry milk was from BioRad. All other chemicals were biological grade. High absorbance 96-well ELISA plates were coated with antigen overnight using […] stock solution per well at 2 μg/ml. Experiments were performed at 4° C. Antigen coated plates were blocked using 3% milk in PBS and 0.5% TWEEN® 20 for 2 h. Blocked plates were incubated with one of the tested primary antibodies for 1 hour, washed 5 times (BioTek plate washer) and incubated with anti-human Fc-HRP (Sigma) as the secondary antibody for 1 hour. Secondary antibody was washed five times, the HRP substrate TMB (Sigma) was added and plate was incubated for 3 minutes. TMB oxidation was stopped with 2.5 M sulfuric acid. Plates' absorbance was measured on plate reader (BioRad) at 415 nm.

[2] = target: T2, recombinant murine GPC2 (R&D Systems); test: as above
Procedure: as §1

[3] = target: T1, recombinant human GPC2 (R&D Systems); test: flow cytometry, CAR T cells stained with fluorescently labelled recombinant GPC2
Description: Primary human T cells were isolated from healthy donors using the RosetteSep Human T cell Enrichment kit (Stem Cell Technologies) using buffy coats were derived from the Stanford Blood Center and processed according to the manufacturer's protocol using Lymphoprep density gradient medium and SepMate-50 tubes. Isolated T cells were cryopreserved in CryoStor CS10 cryopreservation medium (Stem Cell Technologies). Cryopreserved T cells were thawed and activated with Human T-Expander CD3/CD28 Dynabeads (Gibco) at a 3:1 beads: cell ratio in AIM-V media supplemented with 5% FBS, 10 mM HEPES, 2 mM 1-glutamine, 100 U/mL penicillin, and 100 μg/mL streptomycin (Gibco) and with 100 IU/ml of recombinant IL-2 (Preprotech). T cells were transduced with retroviral vector on days 2 and 3 post activation and anti-CD3/CD28 beads were removed on day 5. CAR T-cells were maintained at 0.3-1×10⁶ cells per mL in T cell medium with IL2. CAR expression was assessed by Flow Cytometry after incubation with soluble, recombinant, human GPC2 (R&D systems) labelled with Dylight488 or Dylight650. CAR T cells were used for in vitro assays or transferred into mice on day 10 post activation.
Data was collected with an LSR Fortessa X-20 (BD Bioscience) and analyzed using the FlowJo software. Cells were harvested, washed twice with FACS buffer (PBS supplemented with 2% FBS and 0.4% 0.5 M EDTA) and stained for 30 min in the dark on ice. Cells were washed 3 times with FACS buffer after each incubation step. Cells were gated on viable cells and singlet discrimination (FSC-A/FSC-H) was performed before assessment of antigen expression. Semiquantitative assessment of GPC2 antigen density in molecules per cell was estimated using the BD Quantibrite Kit per the manufacturer's protocol.

[4] = target: T2, recombinant murine GPC2 (R&D Systems); test: flow cytometry, CAR T cells stained with Dylight488-labelled murine GPC2

| Binder | binding result [3] | further results |
| --- | --- | --- |
| B1 | – | EC50 [1]: ~1 nM; EC50 [2]: ~1 nM |
| B2 | binds | – |
| B3 | binds | – |
| B4 | binds | – |
| B5 | binds | binding result [4]: binds |
| B6 | binds | – |
| B7 | binds | – |
